B1: TRAF3IP2 (parent)
chain: PGQPLPGASVRGLHPVQKVILNYP

Variants of: B1
Experiment: protein stability index of a GFP-peptide fusion (GPS, HEK-293T) (PSI 1-6); higher = more stable
Details: c terminus: a fixed tail appended
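Note: lentivirally expressed fusions sorted by FACS into six bins by GFP to DsRed ratio, PSI derived from sequencing read proportions per bin multiplied by bin number.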

Variant	protein stability index
PGQPLPEASVRGLHPVQKVILNYP [G7E]	3.55
PGQPLPLASVRGLHPVQKVILNYP [G7L]	3.44
PGQPLPYASVRGLHPVQKVILNYP [G7Y]	2.26
PGQPLPNASVRGLHPVQKVILNYP [G7N]	2.68
PGQPLPWASVRGLHPVQKVILNYP [G7W]	2.09
PGQPLPMASVRGLHPVQKVILNYP [G7M]	3
PGQPLPCASVRGLHPVQKVILNYP [G7C]	2.59
PGQPLPHASVRGLHPVQKVILNYP [G7H]	3.2
PGQPLPSASVRGLHPVQKVILNYP [G7S]	2.76
PGQPLPIASVRGLHPVQKVILNYP [G7I]	3.05
PGQPLPVASVRGLHPVQKVILNYP [G7V]	3.26
PGQPLPFASVRGLHPVQKVILNYP [G7F]	3.15
PGQPLPAASVRGLHPVQKVILNYP [G7A]	3.02
PGQPLPQASVRGLHPVQKVILNYP [G7Q]	3.12
PGQPLPPASVRGLHPVQKVILNYP [G7P]	3.04
PGQPLPRASVRGLHPVQKVILNYP [G7R]	2.69
PGQPLPKASVRGLHPVQKVILNYP [G7K]	2.76
PGQPLPDASVRGLHPVQKVILNYP [G7D]	3.22
PGQPLPTASVRGLHPVQKVILNYP [G7T]	3.31
PGQPLPGASVRILHPVQKVILNYP [G12I]	2.63
PGQPLPGASVRVLHPVQKVILNYP [G12V]	2.43
PGQPLPGASVRRLHPVQKVILNYP [G12R]	2.76
PGQPLPGASVRQLHPVQKVILNYP [G12Q]	3.42
PGQPLPGASVRNLHPVQKVILNYP [G12N]	2.94

Variant	protein stability index
PGQPLPGASVRWLHPVQKVILNYP [G12W]	1.96
PGQPLPGASVRPLHPVQKVILNYP [G12P]	3.14
PGQPLPGASVRMLHPVQKVILNYP [G12M]	2.85
PGQPLPGASVRCLHPVQKVILNYP [G12C]	2.72
PGQPLPGASVRKLHPVQKVILNYP [G12K]	3.2
PGQPLPGASVRLLHPVQKVILNYP [G12L]	2.12
PGQPLPGASVRDLHPVQKVILNYP [G12D]	3.64
PGQPLPGASVRHLHPVQKVILNYP [G12H]	2.7
PGQPLPGASVRYLHPVQKVILNYP [G12Y]	2.74
PGQPLPGASVRSLHPVQKVILNYP [G12S]	3.39
PGQPLPGASVRFLHPVQKVILNYP [G12F]	2.3
PGQPLPGASVRALHPVQKVILNYP [G12A]	3.69
PGQPLPGASVRELHPVQKVILNYP [G12E]	3.87
PGQPLPGASVRGLHMVQKVILNYP [P15M]	2.05
PGQPLPGASVRGLHQVQKVILNYP [P15Q]	3.85
PGQPLPGASVRGLHLVQKVILNYP [P15L]	2.25
PGQPLPGASVRGLHTVQKVILNYP [P15T]	2.48
PGQPLPGASVRGLHNVQKVILNYP [P15N]	2.92
PGQPLPGASVRGLHDVQKVILNYP [P15D]	3.53
PGQPLPGASVRGLHVVQKVILNYP [P15V]	2.02
PGQPLPGASVRGLHAVQKVILNYP [P15A]	2.29
PGQPLPGASVRGLHRVQKVILNYP [P15R]	3.39
PGQPLPGASVRGLHHVQKVILNYP [P15H]	3.08
PGQPLPGASVRGLHGVQKVILNYP [P15G]	2.76

Variant	protein stability index
PGQPLPGASVRGLHYVQKVILNYP [P15Y]	1.91
PGQPLPGASVRGLHEVQKVILNYP [P15E]	3.12
PGQPLPGASVRGLHSVQKVILNYP [P15S]	2.79
PGQPLPGASVRGLHIVQKVILNYP [P15I]	1.76
PGQPLPGASVRGLHCVQKVILNYP [P15C]	2.13
PGQPLPGASVRGLHKVQKVILNYP [P15K]	2.75
PGQPLPGASVRGCHPVQKVILNYP [L13C]	1.83
PGQPLPGASVRGGHPVQKVILNYP [L13G]	3.31
PGQPLPGASVRGIHPVQKVILNYP [L13I]	3.1
PGQPLPGASVRGEHPVQKVILNYP [L13E]	3.9
PGQPLPGASVRGWHPVQKVILNYP [L13W]	3.02
PGQPLPGASVRGVHPVQKVILNYP [L13V]	2.85
PGQPLPGASVRGAHPVQKVILNYP [L13A]	3.38
PGQPLPGASVRGFHPVQKVILNYP [L13F]	2.91
PGQPLPGASVRGHHPVQKVILNYP [L13H]	3.75
PGQPLPGASVRGTHPVQKVILNYP [L13T]	3.56
PGQPLPGASVRGQHPVQKVILNYP [L13Q]	3.69
PGQPLPGASVRGMHPVQKVILNYP [L13M]	3.59
PGQPLPGASVRGKHPVQKVILNYP [L13K]	3.5
PGQPLPGASVRGPHPVQKVILNYP [L13P]	3.84
PGQPLPGASVRGYHPVQKVILNYP [L13Y]	2.26
PGQPLPGASVRGNHPVQKVILNYP [L13N]	3.36
PGQPLPGASVRGDHPVQKVILNYP [L13D]	3.68
PGQPLPGASVRGRHPVQKVILNYP [L13R]	3.68

Variant	protein stability index
PGQPLPGASVRGSHPVQKVILNYP [L13S]	3.42
PGQPLPGASLRGLHPVQKVILNYP [V10L]	2.61
PGQPLPGASMRGLHPVQKVILNYP [V10M]	3
PGQPLPGASDRGLHPVQKVILNYP [V10D]	2.96
PGQPLPGASSRGLHPVQKVILNYP [V10S]	3
PGQPLPGASRRGLHPVQKVILNYP [V10R]	2.57
PGQPLPGASKRGLHPVQKVILNYP [V10K]	2.89
PGQPLPGASHRGLHPVQKVILNYP [V10H]	2.79
PGQPLPGASARGLHPVQKVILNYP [V10A]	3.52
PGQPLPGASWRGLHPVQKVILNYP [V10W]	2.62
PGQPLPGASTRGLHPVQKVILNYP [V10T]	2.87
PGQPLPGASIRGLHPVQKVILNYP [V10I]	2.84
PGQPLPGASFRGLHPVQKVILNYP [V10F]	2.36
PGQPLPGASCRGLHPVQKVILNYP [V10C]	3.29
PGQPLPGASERGLHPVQKVILNYP [V10E]	3.19
PGQPLPGASQRGLHPVQKVILNYP [V10Q]	3.05
PGQPLPGASNRGLHPVQKVILNYP [V10N]	3.5
PGQPLPGASGRGLHPVQKVILNYP [V10G]	3.54
PGQPLPGASYRGLHPVQKVILNYP [V10Y]	3
PGQPLPGASPRGLHPVQKVILNYP [V10P]	3.22
PGQPLHGASVRGLHPVQKVILNYP [P6H]	3.44
PGQPLRGASVRGLHPVQKVILNYP [P6R]	3.63
PGQPLNGASVRGLHPVQKVILNYP [P6N]	3.21
PGQPLIGASVRGLHPVQKVILNYP [P6I]	2.79

Variant	protein stability index
PGQPLQGASVRGLHPVQKVILNYP [P6Q]	3.46
PGQPLKGASVRGLHPVQKVILNYP [P6K]	2.54
PGQPLMGASVRGLHPVQKVILNYP [P6M]	3.09
PGQPLTGASVRGLHPVQKVILNYP [P6T]	3.21
PGQPLLGASVRGLHPVQKVILNYP [P6L]	2.42
PGQPLSGASVRGLHPVQKVILNYP [P6S]	3.14
PGQPLVGASVRGLHPVQKVILNYP [P6V]	3.46
PGQPLFGASVRGLHPVQKVILNYP [P6F]	3.17
PGQPLYGASVRGLHPVQKVILNYP [P6Y]	2.72
PGQPLGGASVRGLHPVQKVILNYP [P6G]	2.5
PGQPLWGASVRGLHPVQKVILNYP [P6W]	2.53
PGQPLPGASVRGLLPVQKVILNYP [H14L]	2.83
PGQPLPGASVRGLEPVQKVILNYP [H14E]	3.96
PGQPLPGASVRGLRPVQKVILNYP [H14R]	3.37
PGQPLPGASVRGLIPVQKVILNYP [H14I]	3.04
PGQPLPGASVRGLYPVQKVILNYP [H14Y]	2.82
PGQPLPGASVRGLGPVQKVILNYP [H14G]	2.59
PGQPLPGASVRGLCPVQKVILNYP [H14C]	3.3
PGQPLPGASVRGLKPVQKVILNYP [H14K]	3.51
PGQPLPGASVRGLPPVQKVILNYP [H14P]	3.67
PGQPLPGASVRGLVPVQKVILNYP [H14V]	2.96
PGQPLPGASVRGLQPVQKVILNYP [H14Q]	3.67
PGQPLPGASVRGLMPVQKVILNYP [H14M]	2.69
PGQPLPGASVRGLNPVQKVILNYP [H14N]	3.24

Variant	protein stability index
PGQPLPGASVRGLAPVQKVILNYP [H14A]	3.45
PGQPLPGASVRGLSPVQKVILNYP [H14S]	3.19
PGQPLPGASVRGLDPVQKVILNYP [H14D]	3.67
PGQPLPGASVRGLWPVQKVILNYP [H14W]	2.15
PGQPLPGASVRGLFPVQKVILNYP [H14F]	2.61
PGQPLPGASVRGLTPVQKVILNYP [H14T]	3.29
PGQPLPGATVRGLHPVQKVILNYP [S9T]	3.48
PGQPLPGAFVRGLHPVQKVILNYP [S9F]	2.21
PGQPLPGADVRGLHPVQKVILNYP [S9D]	3.08
PGQPLPGAMVRGLHPVQKVILNYP [S9M]	2.68
PGQPLPGAIVRGLHPVQKVILNYP [S9I]	2.16
PGQPLPGAPVRGLHPVQKVILNYP [S9P]	3.58
PGQPLPGAEVRGLHPVQKVILNYP [S9E]	2.92
PGQPLPGAHVRGLHPVQKVILNYP [S9H]	3.5
PGQPLPGAGVRGLHPVQKVILNYP [S9G]	3.2
PGQPLPGAKVRGLHPVQKVILNYP [S9K]	3.19
PGQPLPGARVRGLHPVQKVILNYP [S9R]	2.22
PGQPLPGAVVRGLHPVQKVILNYP [S9V]	3.27
PGQPLPGAQVRGLHPVQKVILNYP [S9Q]	2.86
PGQPLPGAWVRGLHPVQKVILNYP [S9W]	2.97
PGQPLPGAAVRGLHPVQKVILNYP [S9A]	3.99
PGQPLPGAYVRGLHPVQKVILNYP [S9Y]	2.62
PGQPLPGALVRGLHPVQKVILNYP [S9L]	3.09
PGQPLPGANVRGLHPVQKVILNYP [S9N]	3.33

Variant	protein stability index
PGQPLPGASVRGLHPHQKVILNYP [V16H]	3.03
PGQPLPGASVRGLHPFQKVILNYP [V16F]	2.83
PGQPLPGASVRGLHPCQKVILNYP [V16C]	2.93
PGQPLPGASVRGLHPEQKVILNYP [V16E]	3.44
PGQPLPGASVRGLHPAQKVILNYP [V16A]	3.24
PGQPLPGASVRGLHPDQKVILNYP [V16D]	4.08
PGQPLPGASVRGLHPIQKVILNYP [V16I]	3.09
PGQPLPGASVSGLHPVQKVILNYP [R11S]	3.12
PGQPLPGASVNGLHPVQKVILNYP [R11N]	2.96
PGQPLPGASVQGLHPVQKVILNYP [R11Q]	3.79
PGQPLPGASVCGLHPVQKVILNYP [R11C]	3.3
PGQPLPGASVWGLHPVQKVILNYP [R11W]	2.08
PGQPLPGASVMGLHPVQKVILNYP [R11M]	2.75
PGQPLPGASVFGLHPVQKVILNYP [R11F]	2.06
PGQPLPGASVHGLHPVQKVILNYP [R11H]	3.51
PGQPLPGASVIGLHPVQKVILNYP [R11I]	2.96
PGQPLPGASVTGLHPVQKVILNYP [R11T]	3.2
PGQPLPGASVGGLHPVQKVILNYP [R11G]	2.73
PGQPLPGASVAGLHPVQKVILNYP [R11A]	2.6
PGQPLPGASVYGLHPVQKVILNYP [R11Y]	3.4
PGQPLPGASVKGLHPVQKVILNYP [R11K]	2.88
PGQPLPGASVVGLHPVQKVILNYP [R11V]	2.84
PGQPLPGASVLGLHPVQKVILNYP [R11L]	2.25
PGQPLPGASVPGLHPVQKVILNYP [R11P]	3.79

Variant	protein stability index
PGQPLPGASVDGLHPVQKVILNYP [R11D]	3.71
PGQPLPGASVEGLHPVQKVILNYP [R11E]	3.19
PGQPLPGKSVRGLHPVQKVILNYP [A8K]	2.62
PGQPLPGDSVRGLHPVQKVILNYP [A8D]	3.19
PGQPLPGTSVRGLHPVQKVILNYP [A8T]	3.65
PGQPLPGFSVRGLHPVQKVILNYP [A8F]	2.51
PGQPLPGLSVRGLHPVQKVILNYP [A8L]	3.21
PGQPLPGPSVRGLHPVQKVILNYP [A8P]	3.08
PGQPLPGMSVRGLHPVQKVILNYP [A8M]	2.97
PGQPLPGVSVRGLHPVQKVILNYP [A8V]	2.39
PGQPLPGYSVRGLHPVQKVILNYP [A8Y]	2.71
PGQPLPGHSVRGLHPVQKVILNYP [A8H]	2.97
PGQPLPGESVRGLHPVQKVILNYP [A8E]	3.36
PGQPLPGNSVRGLHPVQKVILNYP [A8N]	3.47
PGQPLPGISVRGLHPVQKVILNYP [A8I]	2.83
PGQPLPGCSVRGLHPVQKVILNYP [A8C]	2.27
PGQPLPGQSVRGLHPVQKVILNYP [A8Q]	2.59
PGQPLPGRSVRGLHPVQKVILNYP [A8R]	2.89
PGQPLPGSSVRGLHPVQKVILNYP [A8S]	3.27
PGQPLPGGSVRGLHPVQKVILNYP [A8G]	3.24
